For ten substances, percent of transfected cells showing colocalization results are on record in article PMC4615246.

Where two headings read alike, the source gives them in different places.

Holding throughout (experiment): LacI/LacO array recruitment in cells
Assay [1] deals with LacI-CFP-sPom121 (human) (UniProt Q96HA1).
For assay [2], the target named is LacI-CFP-Nup214 (human) (UniProt P35658).
The target of assay [3] is LacI-CFP-Nup153 (human) (UniProt P49790).
For assay [4], the target named is LacI-CFP-Nup53 (human) (UniProt Q8NFH5).
LacI-CFP-Nup53 (human), sequence (Q8NFH5 whole entry): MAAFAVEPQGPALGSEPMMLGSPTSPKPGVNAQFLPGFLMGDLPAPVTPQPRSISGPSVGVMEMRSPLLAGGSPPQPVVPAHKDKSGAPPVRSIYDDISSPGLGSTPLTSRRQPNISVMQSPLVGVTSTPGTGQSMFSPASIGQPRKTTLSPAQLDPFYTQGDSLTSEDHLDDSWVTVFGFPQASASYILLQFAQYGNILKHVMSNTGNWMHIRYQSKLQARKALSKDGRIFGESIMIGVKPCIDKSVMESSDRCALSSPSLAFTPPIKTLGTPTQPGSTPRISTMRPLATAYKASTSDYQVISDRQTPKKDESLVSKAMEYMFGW
For assay [5], the target named is LacI-CFP-Nup58 (human) (UniProt Q9BVL2).
The target of assay [6] is LacI-CFP-Nup50 (human) (UniProt Q9UKX7).
The target in assay [7] is LacI-CFP-Nup98 (human) (UniProt P52948).
In assay [8] the target is LacI-CFP-Nup214 (human) (UniProt P35658). The source holds these as a separate data set.
In assay [9] the target is LacI-CFP-Nup107 (human) (UniProt P57740).
Assay [10] addresses LacI-CFP-mNup85 (mouse) (UniProt Q8R480).
The target in assay [11] is LacI-CFP-Nup133 (human) (UniProt Q8WUM0).
Assay [12] addresses LacI-CFP-sPom121 (human) (UniProt Q96HA1). This is another data set of the same source.

LacI-CFP-sPom121 (human), sequence (Q96HA1 whole entry): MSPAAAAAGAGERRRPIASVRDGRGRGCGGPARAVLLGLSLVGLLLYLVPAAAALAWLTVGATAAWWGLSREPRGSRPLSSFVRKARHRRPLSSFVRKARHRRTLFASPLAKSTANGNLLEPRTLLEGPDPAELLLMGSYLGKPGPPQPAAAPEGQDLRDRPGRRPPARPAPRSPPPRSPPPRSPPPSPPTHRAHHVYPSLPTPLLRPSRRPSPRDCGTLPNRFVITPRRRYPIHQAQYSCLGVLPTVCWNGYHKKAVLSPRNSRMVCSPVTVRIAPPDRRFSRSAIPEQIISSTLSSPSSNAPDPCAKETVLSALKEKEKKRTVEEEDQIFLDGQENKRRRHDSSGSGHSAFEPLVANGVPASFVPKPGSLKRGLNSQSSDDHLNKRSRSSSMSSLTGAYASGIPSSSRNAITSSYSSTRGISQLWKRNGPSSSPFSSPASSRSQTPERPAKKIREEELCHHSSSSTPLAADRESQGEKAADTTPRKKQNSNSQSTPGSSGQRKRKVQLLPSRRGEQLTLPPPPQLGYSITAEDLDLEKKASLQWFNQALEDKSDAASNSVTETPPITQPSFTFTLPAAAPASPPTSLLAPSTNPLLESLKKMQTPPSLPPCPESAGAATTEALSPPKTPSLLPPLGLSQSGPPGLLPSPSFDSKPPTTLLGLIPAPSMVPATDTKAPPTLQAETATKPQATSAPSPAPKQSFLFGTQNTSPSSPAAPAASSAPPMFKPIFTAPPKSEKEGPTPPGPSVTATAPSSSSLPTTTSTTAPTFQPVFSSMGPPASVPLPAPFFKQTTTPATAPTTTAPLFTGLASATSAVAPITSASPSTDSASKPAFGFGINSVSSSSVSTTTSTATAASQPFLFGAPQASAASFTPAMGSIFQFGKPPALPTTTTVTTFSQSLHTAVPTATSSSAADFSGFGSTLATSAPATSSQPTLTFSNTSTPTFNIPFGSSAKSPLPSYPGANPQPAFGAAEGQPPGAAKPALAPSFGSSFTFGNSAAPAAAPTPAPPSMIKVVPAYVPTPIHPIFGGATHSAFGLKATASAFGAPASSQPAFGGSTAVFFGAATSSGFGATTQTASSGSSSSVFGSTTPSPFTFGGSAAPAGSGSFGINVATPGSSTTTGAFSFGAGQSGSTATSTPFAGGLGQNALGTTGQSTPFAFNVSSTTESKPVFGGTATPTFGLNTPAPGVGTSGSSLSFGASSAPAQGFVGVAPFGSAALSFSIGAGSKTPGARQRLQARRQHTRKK
LacI-CFP-Nup214 (human), sequence (P35658 whole entry): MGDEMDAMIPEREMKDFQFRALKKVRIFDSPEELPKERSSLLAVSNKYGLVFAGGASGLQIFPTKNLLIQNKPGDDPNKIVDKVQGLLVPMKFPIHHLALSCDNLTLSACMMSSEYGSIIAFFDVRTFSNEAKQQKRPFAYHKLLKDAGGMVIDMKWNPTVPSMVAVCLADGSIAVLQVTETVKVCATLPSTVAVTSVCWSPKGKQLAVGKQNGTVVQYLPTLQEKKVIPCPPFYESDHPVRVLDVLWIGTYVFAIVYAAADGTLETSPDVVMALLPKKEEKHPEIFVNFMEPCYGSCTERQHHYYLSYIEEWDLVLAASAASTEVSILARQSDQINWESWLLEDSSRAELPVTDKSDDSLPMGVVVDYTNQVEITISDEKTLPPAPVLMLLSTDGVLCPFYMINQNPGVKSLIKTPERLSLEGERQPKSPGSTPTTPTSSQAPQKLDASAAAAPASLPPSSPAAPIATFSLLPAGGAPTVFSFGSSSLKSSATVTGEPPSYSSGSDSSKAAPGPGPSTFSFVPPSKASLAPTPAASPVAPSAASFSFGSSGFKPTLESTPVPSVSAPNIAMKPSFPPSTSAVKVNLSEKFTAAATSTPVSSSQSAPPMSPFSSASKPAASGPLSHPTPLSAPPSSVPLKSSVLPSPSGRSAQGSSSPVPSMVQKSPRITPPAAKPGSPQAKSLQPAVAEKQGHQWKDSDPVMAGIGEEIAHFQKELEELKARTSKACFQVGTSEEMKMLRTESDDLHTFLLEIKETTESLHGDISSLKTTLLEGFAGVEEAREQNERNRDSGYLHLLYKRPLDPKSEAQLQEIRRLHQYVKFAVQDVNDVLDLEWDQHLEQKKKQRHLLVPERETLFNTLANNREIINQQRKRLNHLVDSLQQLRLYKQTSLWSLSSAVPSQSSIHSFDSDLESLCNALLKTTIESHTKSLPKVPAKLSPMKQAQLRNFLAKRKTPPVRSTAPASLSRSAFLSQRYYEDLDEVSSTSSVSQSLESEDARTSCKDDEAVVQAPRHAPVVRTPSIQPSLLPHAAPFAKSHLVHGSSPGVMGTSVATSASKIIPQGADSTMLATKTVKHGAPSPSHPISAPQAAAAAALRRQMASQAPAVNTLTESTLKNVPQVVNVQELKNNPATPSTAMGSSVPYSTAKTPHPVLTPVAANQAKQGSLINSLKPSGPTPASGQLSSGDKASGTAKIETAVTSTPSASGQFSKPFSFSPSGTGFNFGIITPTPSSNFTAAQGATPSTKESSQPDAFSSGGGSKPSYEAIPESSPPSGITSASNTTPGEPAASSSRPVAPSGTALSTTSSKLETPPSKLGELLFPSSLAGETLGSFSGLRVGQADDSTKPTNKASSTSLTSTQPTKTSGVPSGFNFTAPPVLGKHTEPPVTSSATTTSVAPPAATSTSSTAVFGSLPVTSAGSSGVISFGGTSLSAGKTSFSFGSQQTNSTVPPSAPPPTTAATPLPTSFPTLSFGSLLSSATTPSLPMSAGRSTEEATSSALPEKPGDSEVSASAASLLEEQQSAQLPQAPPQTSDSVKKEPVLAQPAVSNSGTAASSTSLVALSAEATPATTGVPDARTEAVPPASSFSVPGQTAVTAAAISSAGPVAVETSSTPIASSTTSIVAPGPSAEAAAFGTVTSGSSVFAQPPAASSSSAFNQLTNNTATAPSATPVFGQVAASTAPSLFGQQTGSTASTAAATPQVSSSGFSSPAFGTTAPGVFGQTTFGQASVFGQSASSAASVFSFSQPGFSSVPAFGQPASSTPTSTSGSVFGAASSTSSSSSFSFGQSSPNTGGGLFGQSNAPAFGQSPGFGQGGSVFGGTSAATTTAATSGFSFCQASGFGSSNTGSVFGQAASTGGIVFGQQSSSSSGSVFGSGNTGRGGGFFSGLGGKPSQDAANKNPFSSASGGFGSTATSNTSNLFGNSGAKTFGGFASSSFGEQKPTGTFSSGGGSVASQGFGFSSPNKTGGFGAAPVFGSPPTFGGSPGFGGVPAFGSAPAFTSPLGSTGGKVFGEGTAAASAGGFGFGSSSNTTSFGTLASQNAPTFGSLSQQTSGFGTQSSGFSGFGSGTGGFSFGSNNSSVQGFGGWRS
LacI-CFP-Nup153 (human), sequence (P49790 whole entry): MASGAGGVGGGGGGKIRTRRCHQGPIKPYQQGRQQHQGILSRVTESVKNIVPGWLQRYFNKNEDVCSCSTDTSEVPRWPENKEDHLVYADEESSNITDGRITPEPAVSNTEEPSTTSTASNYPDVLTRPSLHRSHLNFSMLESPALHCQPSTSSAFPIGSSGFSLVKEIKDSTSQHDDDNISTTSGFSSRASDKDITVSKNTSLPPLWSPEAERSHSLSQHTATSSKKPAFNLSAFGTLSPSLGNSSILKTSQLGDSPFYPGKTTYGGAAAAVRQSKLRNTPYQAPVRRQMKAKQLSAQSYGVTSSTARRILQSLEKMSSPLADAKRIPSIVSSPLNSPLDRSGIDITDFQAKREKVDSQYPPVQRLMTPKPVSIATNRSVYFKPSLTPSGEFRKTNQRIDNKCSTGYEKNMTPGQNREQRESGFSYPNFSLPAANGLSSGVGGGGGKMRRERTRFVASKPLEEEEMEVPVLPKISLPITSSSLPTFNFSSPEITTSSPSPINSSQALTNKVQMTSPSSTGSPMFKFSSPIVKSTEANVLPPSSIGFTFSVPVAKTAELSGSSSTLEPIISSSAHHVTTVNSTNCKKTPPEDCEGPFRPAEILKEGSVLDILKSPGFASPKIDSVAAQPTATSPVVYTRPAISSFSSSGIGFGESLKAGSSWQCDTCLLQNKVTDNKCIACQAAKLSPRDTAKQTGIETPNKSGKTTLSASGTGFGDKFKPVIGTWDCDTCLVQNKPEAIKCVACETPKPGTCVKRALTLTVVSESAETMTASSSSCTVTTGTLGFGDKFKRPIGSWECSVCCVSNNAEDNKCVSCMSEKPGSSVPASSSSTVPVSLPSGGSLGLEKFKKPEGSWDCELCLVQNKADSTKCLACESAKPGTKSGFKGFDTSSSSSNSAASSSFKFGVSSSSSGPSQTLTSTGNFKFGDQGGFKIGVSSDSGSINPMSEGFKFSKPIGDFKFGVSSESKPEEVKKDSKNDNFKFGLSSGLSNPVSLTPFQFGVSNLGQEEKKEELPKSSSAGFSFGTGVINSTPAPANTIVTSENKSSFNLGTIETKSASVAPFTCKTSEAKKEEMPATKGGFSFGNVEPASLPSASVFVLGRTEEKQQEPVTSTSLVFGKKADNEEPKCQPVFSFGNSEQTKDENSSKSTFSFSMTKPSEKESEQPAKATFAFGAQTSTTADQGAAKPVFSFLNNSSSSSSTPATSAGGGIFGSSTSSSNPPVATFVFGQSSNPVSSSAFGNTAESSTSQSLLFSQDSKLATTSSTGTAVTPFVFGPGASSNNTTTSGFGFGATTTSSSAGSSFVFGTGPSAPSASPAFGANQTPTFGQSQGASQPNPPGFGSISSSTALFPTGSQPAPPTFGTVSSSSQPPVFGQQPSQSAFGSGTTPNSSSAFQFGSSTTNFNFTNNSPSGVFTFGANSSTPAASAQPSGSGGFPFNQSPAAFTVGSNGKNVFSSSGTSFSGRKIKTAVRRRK

In turn, “ELYS (endogenous) (from UniProt Q8WYP5 1-2266) (natural protein)” yielded a percent of transfected cells showing colocalization in assay [1] of 14%.

Consider ELYS (endogenous), Q8WYP5 1-2266, for which the percent of transfected cells showing colocalization amounted to 45% in assay [2]; 65% in assay [3]; 34% in assay [4]; 13% in assay [5]; 37% in assay [6]; 16% in assay [7]. For the same substance, the percent of transfected cells showing colocalization in [8] came to 40%; in [9], 72%; in [10], 9%; in assay [11] it was 62%.

The substance “Nup53 (endogenous) (from UniProt Q8NFH5 1-326) (natural protein)” gave a percent of transfected cells showing colocalization in assay [1] of 2%.

Regarding “Nup62 (endogenous) (from UniProt P37198 1-522) (natural protein)”, the percent of transfected cells showing colocalization in [1] was determined as 89%.

“Nup85 (endogenous) (from UniProt Q9BW27 1-656) (natural protein)”: the percent of transfected cells showing colocalization in assay [1] is 7%.

Take “Nup93 (endogenous) (from UniProt Q8N1F7 1-819) (natural protein)”: the figures for the percent of transfected cells showing colocalization in [12] and in assay [1] were 71% and 68%, respectively.

“Nup98 (endogenous) (from UniProt P52948 1-880) (natural protein)”: the percent of transfected cells showing colocalization in [12] came out at 74%; in [1] it was 72%.

In turn, “Nup133 (endogenous) (from UniProt Q8WUM0 1-1156) (natural protein)” gave a percent of transfected cells showing colocalization in assay [1] of 8%.

The substance “Nup214 (endogenous), P35658 1-2090 (natural protein)” had a percent of transfected cells showing colocalization in assay [11] of 23%.

In the case of “Nup214 (endogenous), P35658 1-2090 (natural protein; other documents disagree on this pair)”, the percent of transfected cells showing colocalization in assay [3] came to 6%.
